Assay results published in patent publication US20230406935A1 (F STAR THERAPEUTICS, published 2023).

B1: FS17-33-449AA/HelD1.3 mock mAb^2 (bispecific antibody, human IgG1, kappa, L234A L235A)
heavy: QVQLQESGPGLVRPSQTLSLTCTVSGSTFSGYGVNWVRQPPGRGLEWIGMIWGDGNTDYNSALKSRVTMLVDTSKNQFSLRLSSVTAADTAVYYCARERDYRLDYWGQGSLVTVSSASTKGPSVFPLAPSSKSTSGGTAALGCLVKDYFPEPVTVSWNSGALTSGVHTFPAVLQSSGLYSLSSVVTVPSSSLGTQTYICNVNHKPSNTKVDKKVEPKSCDKTHTCPPCPAPEAAGGPSVFLFPPKPKDTLMISRTPEVTCVVVDVSHEDPEVKFNWYVDGVEVHNAKTKPREEQYNSTYRVVSVLTVLHQDWLNGKEYKCKVSNKALPAPIEKTISKAKGQPREPQVYTLPPSRDETGYWVSLTCLVKGFYPSDIAVEWESNGEPQYWAKTTPPVLDSDGSFFLYSKLTVSNWRWQLDDVFSCSVMHEALHNHYTQKSLSLSPGK
light: DIQMTQSPASLSASVGETVTITCRASGNIHNYLAWYQQKQGKSPQLLVYNAKTLADGVPSRFSGSGSGTQYSLKINSLQPEDFGSYYCQHFWSTPRTFGGGTKLEIKRTVAAPSVFIFPPSDEQLKSGTASVVCLLNNFYPREAKVQWKVDNALQSGNSQESVTEQDSKDSTYSLSSTLTLSKADYEKHKVYACEVTHQGLSSPVTKSFNRGEC
B2: FS17-33-451/HelD1.3 mock mAb^2 (without LALA) (bispecific antibody, human IgG1, kappa)
heavy: QVQLQESGPGLVRPSQTLSLTCTVSGSTFSGYGVNWVRQPPGRGLEWIGMIWGDGNTDYNSALKSRVTMLVDTSKNQFSLRLSSVTAADTAVYYCARERDYRLDYWGQGSLVTVSSASTKGPSVFPLAPSSKSTSGGTAALGCLVKDYFPEPVTVSWNSGALTSGVHTFPAVLQSSGLYSLSSVVTVPSSSLGTQTYICNVNHKPSNTKVDKKVEPKSCDKTHTCPPCPAPELLGGPSVFLFPPKPKDTLMISRTPEVTCVVVDVSHEDPEVKFNWYVDGVEVHNAKTKPREEQYNSTYRVVSVLTVLHQDWLNGKEYKCKVSNKALPAPIEKTISKAKGQPREPQVYTLPPSRDEEGYWVSLTCLVKGFYPSDIAVEWESNGEPQYWAKTTPPVLDSDGSFFLYSKLTVSNWRWQLDDVFSCSVMHEALHNHYTQKSLSLSPGK
light: DIQMTQSPASLSASVGETVTITCRASGNIHNYLAWYQQKQGKSPQLLVYNAKTLADGVPSRFSGSGSGTQYSLKINSLQPEDFGSYYCQHFWSTPRTFGGGTKLEIKRTVAAPSVFIFPPSDEQLKSGTASVVCLLNNFYPREAKVQWKVDNALQSGNSQESVTEQDSKDSTYSLSSTLTLSKADYEKHKVYACEVTHQGLSSPVTKSFNRGEC
B3: FS17-33-449/HelD1.3 mock mAb^2 (without LALA) (bispecific antibody, human IgG1, kappa)
heavy: QVQLQESGPGLVRPSQTLSLTCTVSGSTFSGYGVNWVRQPPGRGLEWIGMIWGDGNTDYNSALKSRVTMLVDTSKNQFSLRLSSVTAADTAVYYCARERDYRLDYWGQGSLVTVSSASTKGPSVFPLAPSSKSTSGGTAALGCLVKDYFPEPVTVSWNSGALTSGVHTFPAVLQSSGLYSLSSVVTVPSSSLGTQTYICNVNHKPSNTKVDKKVEPKSCDKTHTCPPCPAPELLGGPSVFLFPPKPKDTLMISRTPEVTCVVVDVSHEDPEVKFNWYVDGVEVHNAKTKPREEQYNSTYRVVSVLTVLHQDWLNGKEYKCKVSNKALPAPIEKTISKAKGQPREPQVYTLPPSRDETGYWVSLTCLVKGFYPSDIAVEWESNGEPQYWAKTTPPVLDSDGSFFLYSKLTVSNWRWQLDDVFSCSVMHEALHNHYTQKSLSLSPGK
light: DIQMTQSPASLSASVGETVTITCRASGNIHNYLAWYQQKQGKSPQLLVYNAKTLADGVPSRFSGSGSGTQYSLKINSLQPEDFGSYYCQHFWSTPRTFGGGTKLEIKRTVAAPSVFIFPPSDEQLKSGTASVVCLLNNFYPREAKVQWKVDNALQSGNSQESVTEQDSKDSTYSLSSTLTLSKADYEKHKVYACEVTHQGLSSPVTKSFNRGEC
B4: FS17-33-451AA/HelD1.3 mock mAb^2 (bispecific antibody, human IgG1, kappa, L234A L235A)
heavy: QVQLQESGPGLVRPSQTLSLTCTVSGSTFSGYGVNWVRQPPGRGLEWIGMIWGDGNTDYNSALKSRVTMLVDTSKNQFSLRLSSVTAADTAVYYCARERDYRLDYWGQGSLVTVSSASTKGPSVFPLAPSSKSTSGGTAALGCLVKDYFPEPVTVSWNSGALTSGVHTFPAVLQSSGLYSLSSVVTVPSSSLGTQTYICNVNHKPSNTKVDKKVEPKSCDKTHTCPPCPAPEAAGGPSVFLFPPKPKDTLMISRTPEVTCVVVDVSHEDPEVKFNWYVDGVEVHNAKTKPREEQYNSTYRVVSVLTVLHQDWLNGKEYKCKVSNKALPAPIEKTISKAKGQPREPQVYTLPPSRDEEGYWVSLTCLVKGFYPSDIAVEWESNGEPQYWAKTTPPVLDSDGSFFLYSKLTVSNWRWQLDDVFSCSVMHEALHNHYTQKSLSLSPGK
light: DIQMTQSPASLSASVGETVTITCRASGNIHNYLAWYQQKQGKSPQLLVYNAKTLADGVPSRFSGSGSGTQYSLKINSLQPEDFGSYYCQHFWSTPRTFGGGTKLEIKRTVAAPSVFIFPPSDEQLKSGTASVVCLLNNFYPREAKVQWKVDNALQSGNSQESVTEQDSKDSTYSLSSTLTLSKADYEKHKVYACEVTHQGLSSPVTKSFNRGEC
notes: also called F17-33-451AA/HelD1.3; F17-33-451AA/HELD1.3
B5: FS17-33-451AA/MSL109 mock mAb^2 (bispecific antibody, human IgG1, kappa, L234A L235A)
heavy: EEQVLESGGGLVKPGGSLRLSCAASGFTFSPYSVFWVRQAPGKGLEWVSSINSDSTYKYYADSVKGRFTISRDNAENSIFLQMNSLRAEDTAVYYCARDRSYYAFSSGSLSDYYYGLDVWGQGTTVIVSSASTKGPSVFPLAPSSKSTSGGTAALGCLVKDYFPEPVTVSWNSGALTSGVHTFPAVLQSSGLYSLSSVVTVPSSSLGTQTYICNVNHKPSNTKVDKKVEPKSCDKTHTCPPCPAPEAAGGPSVFLFPPKPKDTLMISRTPEVTCVVVDVSHEDPEVKFNWYVDGVEVHNAKTKPREEQYNSTYRVVSVLTVLHQDWLNGKEYKCKVSNKALPAPIEKTISKAKGQPREPQVYTLPPSRDEEGYWVSLTCLVKGFYPSDIAVEWESNGEPQYWAKTTPPVLDSDGSFFLYSKLTVSNWRWQLDDVFSCSVMHEALHNHYTQKSLSLSPGK
light: DIVMTQSPLSLSVTPGEPASISCRSSQSLLHTNGYNYLDWYVQKPGQSPQLLIYLASNRASGVPDRFSGSGSGTDFTLKISRVETEDVGVYYCMQALQIPRTFGQGTKVEIKRTVAAPSVFIFPPSDEQLKSGTASVVCLLNNFYPREAKVQWKVDNALQSGNSQESVTEQDSKDSTYSLSSTLTLSKADYEKHKVYACEVTHQGLSSPVTKSFNRGEC
notes: also called FS17-33-451AA/MSL109 (parent 2)
B6: FS17-33-539AA/MSL109 (bispecific antibody, human IgG1, kappa, L234A L235A)
heavy: EEQVLESGGGLVKPGGSLRLSCAASGFTFSPYSVFWVRQAPGKGLEWVSSINSDSTYKYYADSVKGRFTISRDNAENSIFLQMNSLRAEDTAVYYCARDRSYYAFSSGSLSDYYYGLDVWGQGTTVIVSSASTKGPSVFPLAPSSKSTSGGTAALGCLVKDYFPEPVTVSWNSGALTSGVHTFPAVLQSSGLYSLSSVVTVPSSSLGTQTYICNVNHKPSNTKVDKKVEPKSCDKTHTCPPCPAPEAAGGPSVFLFPPKPKDTLMISRTPEVTCVVVDVSHEDPEVKFNWYVDGVEVHNAKTKPREEQYNSTYRVVSVLTVLHQDWLNGKEYKCKVSNKALPAPIEKTISKAKGQPREPQVYTLPPSRDETGYWVSLTCLVKGFYPSDIAVEWESNGEPQYWAKTTPPVLDSDGSFFLYSKLTVSNWRWQLGDVFSCSVMHEALRNHYTQKSLSLSPGK
light: DIVMTQSPLSLSVTPGEPASISCRSSQSLLHTNGYNYLDWYVQKPGQSPQLLIYLASNRASGVPDRFSGSGSGTDFTLKISRVETEDVGVYYCMQALQIPRTFGQGTKVEIKRTVAAPSVFIFPPSDEQLKSGTASVVCLLNNFYPREAKVQWKVDNALQSGNSQESVTEQDSKDSTYSLSSTLTLSKADYEKHKVYACEVTHQGLSSPVTKSFNRGEC

biological target: T1, Human PD-L1 expressed on cells (human, UniProt Q9NZQ7 19-290); test: cell-based or functional assay
T1 sequence (Q9NZQ7 19-290 limits assumed): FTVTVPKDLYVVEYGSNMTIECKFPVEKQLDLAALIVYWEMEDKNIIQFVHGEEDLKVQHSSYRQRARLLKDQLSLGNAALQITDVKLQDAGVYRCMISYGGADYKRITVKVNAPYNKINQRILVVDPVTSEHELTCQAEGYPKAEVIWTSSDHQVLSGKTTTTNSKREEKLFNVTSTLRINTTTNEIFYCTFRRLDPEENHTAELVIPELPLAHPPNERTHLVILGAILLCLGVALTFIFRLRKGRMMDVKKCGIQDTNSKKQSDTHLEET

| Binder | SEB assay (IFNγ release) EC50 [nM] |
| --- | --- |
| B1 | 0.55 |
| B2 | 0.852 |
| B3 | 0.644 |
| B4 | 1.12 |

biological target: T1, Human PD-L1 expressed on cells; test: cell-based or functional assay; remark: another data set of the same source

| Binder | SEB EC50 [nM] |
| --- | --- |
| B5 | 1.11 |
| B6 | 0.97 |
